“And” between values parts separate entries of the source, which are not always exact repeats. Equal values may be shown once.
Tested on: HEK293T
Assay: median enrichment of reporter reads in eGFP-reduced (low/intermediate) vs eGFP-high sorted cells (eGFP-extension fusion abundance) (ratio); higher = stronger loss of eGFP-fusion protein abundance (more destabilising extension)
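Also: lentiviral eGFP-IRES-mCherry reporter pool sorted by FACS 96 h post-transduction, gated on mCherry-high cells, Illumina read counts normalized per million, median across four biological replicates.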

Row | Substance | median enrichment
1 | CIFFYQEG [PTEN] | 6.73 and 8.49
2 | SFHLLKPAYFRTLRLTVFSLLMMSSC [PIK3AP1] | 11.1
3 | YVTTPRSSAFKTKRDWGSGEGEEEQEEKKYSELLQVTLIKNLL [NR5A2] | 8.46
4 | LAAWDRSTNYTGSGIRVSKMSYECRSEGHMLTLESVER [NLRP7] | 13.6
5 | WRLRASRRDLMPRGGGCL [CTU1] | 5.49
6 | WSRS [LCE3E] | 1.42
7 | CSFQRNMVSGQKDC [ZNF831] | 0.731
8 | RSC [DCK] | 0.415
9 | QQQQQQ [Gln06] | 0.198
10 | RDKVRVFSSYILSQATLQDVAKAYIFP [IPCEF1] | 3.59
11 | SPWSLVPGARASPPFHQPHRPLRGWSPLPGHGGRIPLGWSRLEKLLCQVCSLSAIVTSLPRGGDHITKRNSPFSKG [TCF21] | 3.11
12 | YEQCIT [DCTN6] | 2.67
13 | EFILMKENVTKEMHEM [MYH4] | 2.79
14 | RSRVFQVPGPWL [MYL4] | 1.67
15 | YRNSNPGVPV [INPP1] | 0.415
16 | GGGGGGGGGG [Gly10] | 11.7
17 | RKINYTFYSPPEDHCPKAGSICSNNAAFTSSVHLCS [OR4M1] | 10.5
18 | KKNQNGLR [ADGRB3] | 0.618
19 | VVVVVVVVV [Val09] | 8.21
20 | LSRLW [CREG1] | 16.6
21 | DQPHSAQEAASGVGAQRGTAASSTAGCGAAGPGPSAWAAEYIFYLSETSIFLGSNPTCHHVDISSYLTMLSLLGAVLVGPGPC [BAP1] | 4.59
22 | YVLCCIPFSFLQMTMNFKLWGQCCNIFTFSNSQNLKNVKLCLVCFS [INPP4B] | 5.86
23 | RSGLFQ [IQCF1] | 0.394
24 | YGRIMACLSPFLLQIKFSTHSFLLQIKFSTHSFFNTVL [OR2AG2] | 49.9

Row | Substance | median enrichment
25 | QNNVSYFSIKDHLKLLIPNIN [DMAC2L] | 12.2
26 | RRPRAPHLSRSLMPQGAQ [SLC44A2] | 1.11
27 | RPPAPNSIIYYGAAPPGWPDPWALGLWILVPCLENSPPLAPHCSL [CYTH2] | 8.4
28 | LVSCLKGGNRKSRLLSVKFVLPVCC [PCMTD2] | 7.69
29 | QSYHSGC [USP32] | 0.623
30 | SGGVGPGRAGVCWHRQPPLWALGGPLKGSPTRGPDESFLSGVGSQRGSPPAAWGRAWPGRVIQRVCQPLTGSPSVAATRSTEL [FAM53B] | 5.41
31 | QRPVLVSHPCHSRSLPVPLLPKMPWLDWTPSPHDHASDCHPLPVPKSMCTPLTTGTAPPNHRHQATI [PTPRCAP] | 8.88
32 | CITKCLYCLK [EFCAB1] | 7.35
33 | WWWWWWWWWW [Trp10] | 4.65
34 | LRPGHPDVLLKGAPRAGRGL [CBLC] | 1.91
35 | WGATSFSTTMLLHFPTPTRPPSSPPTPFSHSHPHHRSLDCWEWKPGGVMAQVL [RAMP2] | 8.95
36 | RFQIWRRPGKPTEVQHVICLKVVLLHHIDDPTTSNMGHSIHFNISIFLYHFCYLSV [ARPC5] | 6.81
37 | QAMPRPRT [CREB3L1] | 0.317
38 | RHSTRPPGLLGPPTPTALTAFPIAPGSSPPLGGTVKGSSLTRRLLLPLGSQLPPQESLLGRTLRTPSLHPVVL [KLC4] | 9.71
39 | EIPQHGSLMFICCLSFLLSFPVCFQFSTSSAHPVLCPFVCVRTI [PCLO] | 8.91
40 | WGC [PIGN] | 0.651
41 | YSHPPPLGVPNVPSAVPAAAPLHPQLHHPLSHSRSCTPAFQLCPRGF [PRKCG] | 3.59
42 | CGRCTRQEEGDWGPWPGTVLLRGRRRLQQSHGSPRGEGCLSRFLRPRRSDFWARGHARAVQSWPGPPVGLLCSLPSLPPDAGP [FRMD8] | 5.53
43 | WTTNTQRNNLFTTPGCMIEGEASTSTSRGP [TTLL5] | 16.4
44 | SVAGGVTARSPDFTSFGPVLL [UTP14A] | 0.633
45 | LIHGAEG [SLC16A1] | 1.29
46 | KIFLELLAIVTECPPFQSQLKTSAP [HEY2] | 4.36
47 | RGLRRGLTEP [SLC22A6] | 0.442
48 | RGK [PKP2] | 0.513

Row | Substance | median enrichment
49 | IIII [Ile04] | 11.9
50 | QKKPL [NFATC2] | 0.453
51 | DLASKKSCSVPCVLSFKGIFRINSDLEDSSVLQRLAFIFIVIMEMLSFILSYIRKKGVMQLISISLGNALVLFSSFLVPVTCL [CREB5] | 14
52 | LIHSQGKLGNSEEKSLPSFWMNCMSSGLSTTM [RNF32] | 10
53 | CAWSAHRLSSAFALLRCYRTLAPDVCSFTGCLICLLHPTGPPTSSDVFLIMSAMCPILLHALPPFPTTAEWPGTCLKCLFPIS [F11R] | 6.63
54 | YLEQMETPWGAGSGSPAPSQTLQCQKQQQNETQPPPTTATTRRMIQQVFLKN [GRIA1] | 2.38
55 | YAATAKKNRVRKLLGWVDLGIFYLVKALYSHRRKIWDISIIYILI [RFPL3] | 45.1
56 | YWELLWQVPPE [C1orf115] | 3.92
57 | LDFMHSSERVTVTTVLSPISHKLLFVSKRMLLLLHCFPFAGTCWCLLLNWPALLAVWHCSLGRLLCSLYLHYRLVNLPTSSL [DCUN1D4] | 4.52
58 | YEAVMRMVL [SETDB1] | 4.84 and 3.68
59 | WPSLPPKPRACLSAQLEGPRLQGVLPQSRCFLCIRDPLPSHPVSCLHRWIIFEPPCVDHFEPPGLAQFILIKVFLGGILGT [PARVG] | 9.47
60 | LKVLAGFT [DACH2] | 4.2
61 | LTSSLQRSESGGGSACREGLDLHIFSGVVRASPYLLLSPCEEDPDLASFPRRGWGVPRVPVLEGPPSPSLITVLFSAPPSAAR [ZNF646] | 4.64
62 | RGNLQAEEVSAAALLEPGRGLPVSQPGPATQDSWDIPCVTPLRPFGLAPWLSLREVALRLAIYIYNLFT [HK3] | 4.11
63 | QFCPPVTPVSGTRNPQHALMLCF [DNMT1] | 4.79
64 | LGYRFWKHLSLGPKEVLLPFWASITQVVPVLTAEETSLPLFVLSPSFFNSV [MS4A8] | 15.7
65 | YISLFVSMRCPTGPI [CADM1] | 15.7
66 | QNTFLL [CFAP97] | 0.56
67 | SGAKQRHQLLHQKS [SGMS2] | 0.386
68 | LAWN [CLRN1] | 0.652
69 | GGG [Gly03] | 1.62
70 | RNLNGHYKLSNST [ARMC4] | 1.99
71 | RVWGPCQPAAPKPAPLPKQPRPLPLNPGPGRPGRPPVTAAAPALCRAALTCLPSQPLTSRLSLGQREPFGGAACLLWFWEG [FLNA] | 3.47
72 | KPERSQDPSRQHQLTDALVVPPSSPDCARSAVPSSGHLSSLWVPPHPSPC [RBP5] | 5.79

Row | Substance | median enrichment
73 | LEKPQVLLRLLSLPCQVSPVLTIQLGSTPFALLPCHTVLCLLFQVGMIMPSPANILQGPPNLIAGHSQPSESESRFLLSLPSS [PGLYRP4] | 7.65
74 | YDFQKTLILFLKL [PRDM1] | 8.51
75 | RHSPLLVPH [TP53] | 0.971
76 | ASVLLRGAVCGEGLSWQGKHLRVTLTLGPLLFLKRLLATGKKNDLATLEETSAKEDVLASLSYFCSVVDLHIVVYLVWKCVSK [POLR1D] | 7.42
77 | SSS [Ser03] | 0.352
78 | RRTHRQ [ZNF397] | 1.02
79 | LASCGPGNEMELTA [TSSK1B] | 1.49
80 | WTYVLC [OR2L5] | 7.99
81 | SDPAGSINLDAWTL [MYL5] | 0.467
82 | RCRVFSSFFLLQEFVVT [MMP16] | 3.48
83 | SDGSAGTHCPPWLPLGGNPNRAPGGNPAPNPPQQGCTVSPLED [ATP13A1] | 0.555
84 | LILKLHPQ [BZW1] | 4.65
85 | YKYTLTERDNRQRGSVAEDPLLCLY [TNIP3] | 7.19
86 | SQREENILVLFFFQKKRKIKEIYPLLPLHLSQ [SLITRK3] | 40.1
87 | CRRPPGGGSGGRCVDPTASSSY [FRAT2] | 0.875
88 | YHPHSSSSPPNRLGSRGLLCKPTGQLWLRAHLLQRVPQPLLNLDFCPNPLPVTRSISLSLLSNGAWSTEASEAIALLAEVKRT [SLC18A3] | 4.57
89 | STIEICSEM [PCDH11Y] | 0.758
90 | SCVGHPTRHPSSLRRPVGRQGSRGFALLLSSRVMTLLSISSHYSPCLALRAALLSSQAAPVPSPSTLEWSSSACFPSHRPATT [RAB15] | 5.5
91 | YLSNH [WDR27] | 3.24
92 | QKQPQGSINNICQLNLLSSNAKKGEWRVQD [PAPOLA] | 2.06
93 | DDDDDDDDDD [Asp10] | 0.433
94 | QGGDF [KIF16B] | 0.225
95 | YNIYKLWVLDGLS [RBM41] | 3.9
96 | GRRADSLAAPVLSPAILPYQGHWPLPSLCEGYFL [CYP2C18] | 17

Row | Substance | median enrichment
97 | SSSS [Ser04] | 0.471
98 | SEPQLTKSACPRTAPALELGARAAELVFGPQRRIQNQKLKSDVRWAPAPSAESRQGEAGWSQAPSHAAPKSWTHLWGAPHLHL [MYO9B] | 7.17
99 | LPDFGAAEAT [ELP6] | 0.429
100 | YWWLVVMNSYSVASSLPASHLPSTSQLLPSLTEANIFI [NTRK3] | 23.2
101 | LMPSTAADLWLDLGKGSIVLGKSTRSCKLGIHS [AGBL4] | 8.11
102 | YEISLPGWEERKWGCPGETRNLPSPGWGQGLC [HOXB13] | 3.71
103 | SRPHTPALTQLLLGT [GRM2] | 5.49
104 | WQQPQG [CCNB3] | 0.678
105 | SAHAARRQGGLRRGPHSTRVCFCAAVQTVATALTERDSRAFILKEMFFPRGLLKE [GATA6] | 4.62
106 | EVNV [CLEC2B] | 0.328
107 | LWLSCLQYLNFKSKSIY [IFNG] | 13.2
108 | RQEGRPHCFSHPFPLLPMGRGPGCRKSSYLQELHHNLEGSSWSCEFSLYSVTIPDHLIKMLPPSIGFIELVTS [NME1] | 9.63
109 | SRSRDDALFSAIYPKLFQI [PCDHB5] | 2.76
110 | WRRLVSTHSGAFLISSSHTNHPSLPIVSSSQ [CYP19A1] | 12.8
111 | YTSRTAT [NCOA6] | 0.753
112 | YPSQGCSSVPSRRMWQGRAGSE [SERPINA4] | 0.599
113 | SHVRNLSIK [AGTR1] | 0.587
114 | LPNFTSSGESLTLNQRPSTALAPQTSP [ABCB5] | 0.355
115 | RNEYMTGNNGDCL [CTPS2] | 0.464
116 | SIPHPGSSAPRAGGHLRSVISL [IP6K2] | 0.975
117 | WKLYMLRDVLLSGSIELPLSVNFKV [PDCD10] | 11
118 | WRLSISRDMVLTQQFPVMAKCSI [IL13RA2] | 5.59

Reference: the supplement of paper PMC11502859
